Assay results taken from the supplement of paper PMC5998384.

Tests used:
HeLa Kyoto [1] = test: melting temperature (median over replicates), in situ; higher = more thermally stable
HeLa Kyoto [2] = test: solubility change mitosis vs G1/S (difference of NP-40 vs SDS log2 ratios) (log2 ratio difference); higher = more soluble in mitosis
HeLa Kyoto [3] = test: thermal stability score vs G1/S (z-score of summed log2 fold changes over temperatures); higher = more thermally stable than in G1/S
HeLa Kyoto [4] = test: solubility in G1/S (NP-40 vs SDS abundance) (log2 ratio); higher = more soluble; details: cell cycle stage: G1/S
[5] = cell cycle stage: early G1 (4.5 h after nocodazole release)
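Wherever melting temperature (median over replicates), in situ is given: HeLa Kyoto cells synchronized by double thymidine or nocodazole block, proteins quantified by TMT10plex mass spectrometry, three independent biological replicates.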
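Wherever solubility change mitosis vs G1/S (difference of NP-40 vs SDS log2 ratios) is given: synchronized HeLa Kyoto cells (double thymidine block for G1/S, nocodazole release for mitosis), protein amounts in NP-40 versus SDS lysates quantified by mass spectrometry, three biological replicates.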
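Wherever solubility in G1/S (NP-40 vs SDS abundance) is given: HeLa Kyoto cells arrested at G1/S by double thymidine block, proteins quantified by TMT10plex mass spectrometry in mild NP-40 versus SDS extracts, three biological replicates.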
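Wherever thermal stability score vs G1/S (z-score of summed log2 fold changes over temperatures) is given: synchronized HeLa Kyoto cells, proteins quantified by TMT10plex mass spectrometry, three biological replicates, mitosis taken 0.5 h after nocodazole release, G1/S directly after double thymidine block.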

| Sequence | melting temperature (HeLa Kyoto [1]; cell cycle stage: G1/S) [°C] | melting temperature (HeLa Kyoto [1]; cell cycle stage: mitosis) [°C] | solubility change mitosis (log2) (HeLa Kyoto [2]) | thermal stability score (HeLa Kyoto [3]; [5]) | thermal stability score (HeLa Kyoto [3]; cell cycle stage: mitosis) | solubility in G1/S (log2) (HeLa Kyoto [4]) |
| --- | --- | --- | --- | --- | --- | --- |
| MASASYHISNLLEKMTSSDKDFRFMATNDLMTELQKDSIKLDDDSERKVVKMILKLLEDKNGEVQNLAVKCLGPLVSKVKEYQVETIVDTLCTNMLSDKEQLRDISSIGLKTVIGELPPASSGSALAANVCKKITGRLTSAIAKQEDVSVQLEALDIMADMLSRQGGLLVNFHPSILTCLLPQLTSPRLAVRKRTIIALGHLVMSCGNIVFVDLIEHLLSELSKNDSMSTTRTYIQCIAAISRQAGHRIGEYLEKIIPLVVKFCNVDDDELREYCIQAFESFVRRCPKEVYPHVSTIINICLKYLTYDPNYNYDDEDEDENAMDADGGDDDDQGSDDEYSDDDDMSWKVRRAAAKCLDAVVSTRHEMLPEFYKTVSPALISRFKEREENVKADVFHAYLSLLKQTRPVQSWLCDPDAMEQGETPLTMLQSQVPNIVKALHKQMKEKSVKTRQCCFNMLTELVNVLPGALTQHIPVLVPGIIFSLNDKSSSSNLKIDALSCLYVILCNHSPQVFHPHVQALVPPVVACVGDPFYKITSEALLVTQQLVKVIRPLDQPSSFDATPYIKDLFTCTIKRLKAADIDQEVKERAISCMGQIICNLGDNLGSDLPNTLQIFLERLKNEITRLTTVKALTLIAGSPLKIDLRPVLGEGVPILASFLRKNQRALKLGTLSALDILIKNYSDSLTAAMIDAVLDELPPLISESDMHVSQMAISFLTTLAKVYPSSLSKISGSILNELIGLVRSPLLQGGALSAMLDFFQALVVTGTNNLGYMDLLRMLTGPVYSQSTALTHKQSYYSIAKCVAALTRACPKEGPAVVGQFIQDVKNSRSTDSIRLLALLSLGEVGHHIDLSGQLELKSVILEAFSSPSEEVKSAASYALGSISVGNLPEYLPFVLQEITSQPKRQYLLLHSLKEIISSASVVGLKPYVENIWALLLKHCECAEEGTRNVVAECLGKLTLIDPETLLPRLKGYLISGSSYARSSVVTAVKFTISDHPQPIDPLLKNCIGDFLKTLEDPDLNVRRVALVTFNSAAHNKPSLIRDLLDTVLPHLYNETKVRKELIREVEMGPFKHTVDDGLDIRKAAFECMYTLLDSCLDRLDIFEFLNHVEDGLKDHYDIKMLTFLMLVRLSTLCPSAVLQRLDRLVEPLRATCTTKVKANSVKQEFEKQDELKRSAMRAVAALLTIPEAEKSPLMSEFQSQISSNPELAAIFESIQKDSSSTNLESMDTS [CAND1] | 56.9 | 56.2 | -0.0927 | -0.92 | -0.546 | 0.0808 |
| MMSDEKNLGVSQKLVSPSRSTSSCSSKQGSRQDSWEVVEGLRGEMNYTQEPPVQKGFLLKKRKWPLKGWHKRFFYLDKGILKYAKSQTDIEREKLHGCIDVGLSVMSVKKSSKCIDLDTEEHIYHLKVKSEEVFDEWVSKLRHHRMYRQNEIAMFPHEVNHFFSGSTITDSSSGVFDSISSRKRSSISKQNLFQTGSNVSFSCGGETRVPLWLQSSEDMEKCSKDLAHCHAYLVEMSQLLQSMDVLHRTYSAPAINAIQGGSFESPKKEKRSHRRWRSRAIGKDAKGTLQVPKPFSGPVRLHSSNPNLSTLDFGEEKNYSDGSETSSEFSKMQEDLCHIAHKVYFTLRSAFNIMSAEREKLKQLMEQDASSSPSAQVIGLKNALSSALAQNTDLKERLRRIHAESLLLDSPAVAKSGDNLAEENSRDENRALVHQLSNESRLSITDSLSEFFDAQEVLLSPSSSENEISDDDSYVSDISDNLSLDNLSNDLDNERQTLGPVLDSGREAKSRRRTCLPAPCPSSSNISLWNILRNNIGKDLSKVAMPVELNEPLNTLQRLCEELEYSELLDKAAQIPSPLERMVYVAAFAISAYASSYYRAGSKPFNPVLGETYECIREDKGFQFFSEQVSHHPPISACHAESRNFVFWQDVRWKNKFWGKSMEIVPIGTTHVTLPVFGDHFEWNKVTSCIHNILSGQRWIEHYGEIVIKNLHDDSCYCKVNFIKAKYWSTNAHEIEGTVFDRSGKAVHRLFGKWHESIYCGGGSSSACVWRANPMPKGYEQYYSFTQFALELNEMDPSSKSLLPPTDTRFRPDQRFLEEGNLEEAEIQKQRIEQLQRERRRVLEENHVEHQPRFFRKSDDDSWVSNGTYLELRKDLGFSKLDHPVLW [OSBPL3] | 48.8 | 48.7 | -0.0655 | 0.31 | 0.491 | -0.196 |
